Results: patent publication US11807877

Key:
[1] = biological target: Staphylococcus aureus Cas9, wild-type (Staphylococcus aureus) (UniProt J7RUA5); assay: cell-based or functional assay
[2] = biological target: Streptococcus pyogenes Cas9, wild-type (Streptococcus pyogenes) (UniProt Q99ZW2); assay: cell-based or functional assay
Chain of UniProt Q99ZW2 (Q99ZW2 whole entry): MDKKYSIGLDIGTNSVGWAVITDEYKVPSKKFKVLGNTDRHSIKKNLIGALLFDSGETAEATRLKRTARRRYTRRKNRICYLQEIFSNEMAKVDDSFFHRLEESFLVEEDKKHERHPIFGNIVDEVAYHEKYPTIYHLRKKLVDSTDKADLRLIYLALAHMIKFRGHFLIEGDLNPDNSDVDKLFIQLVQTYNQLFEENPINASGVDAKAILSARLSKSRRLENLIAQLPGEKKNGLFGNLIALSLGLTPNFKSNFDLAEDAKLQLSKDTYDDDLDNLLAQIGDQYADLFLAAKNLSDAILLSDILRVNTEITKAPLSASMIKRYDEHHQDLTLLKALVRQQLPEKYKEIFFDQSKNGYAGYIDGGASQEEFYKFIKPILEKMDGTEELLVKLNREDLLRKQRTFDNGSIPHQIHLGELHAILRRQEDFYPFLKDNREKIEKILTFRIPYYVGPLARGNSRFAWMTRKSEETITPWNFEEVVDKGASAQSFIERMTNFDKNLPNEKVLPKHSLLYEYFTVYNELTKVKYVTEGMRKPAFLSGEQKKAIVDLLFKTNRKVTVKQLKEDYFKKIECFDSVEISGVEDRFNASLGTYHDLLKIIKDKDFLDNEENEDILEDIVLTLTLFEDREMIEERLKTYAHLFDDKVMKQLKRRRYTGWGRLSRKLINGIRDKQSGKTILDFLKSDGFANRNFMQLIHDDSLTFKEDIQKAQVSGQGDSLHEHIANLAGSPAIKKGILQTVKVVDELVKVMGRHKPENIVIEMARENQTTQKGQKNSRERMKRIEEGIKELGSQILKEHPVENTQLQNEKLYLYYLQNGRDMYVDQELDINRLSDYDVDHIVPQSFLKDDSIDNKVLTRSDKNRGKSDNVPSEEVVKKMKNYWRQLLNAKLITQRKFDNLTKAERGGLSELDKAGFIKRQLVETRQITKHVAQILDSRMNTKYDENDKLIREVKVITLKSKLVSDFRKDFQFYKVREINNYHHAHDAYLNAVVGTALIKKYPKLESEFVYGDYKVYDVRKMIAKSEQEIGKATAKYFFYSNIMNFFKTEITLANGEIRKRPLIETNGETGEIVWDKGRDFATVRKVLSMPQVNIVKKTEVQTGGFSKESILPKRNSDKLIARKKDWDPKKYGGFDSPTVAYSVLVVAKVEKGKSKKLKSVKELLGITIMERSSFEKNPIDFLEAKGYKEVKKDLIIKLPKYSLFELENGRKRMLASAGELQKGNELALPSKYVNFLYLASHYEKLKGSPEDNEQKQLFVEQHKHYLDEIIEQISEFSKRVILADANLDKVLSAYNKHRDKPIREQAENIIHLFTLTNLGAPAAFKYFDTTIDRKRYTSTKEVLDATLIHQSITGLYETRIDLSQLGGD

Chain of UniProt J7RUA5 (J7RUA5 2-1053, tags left off): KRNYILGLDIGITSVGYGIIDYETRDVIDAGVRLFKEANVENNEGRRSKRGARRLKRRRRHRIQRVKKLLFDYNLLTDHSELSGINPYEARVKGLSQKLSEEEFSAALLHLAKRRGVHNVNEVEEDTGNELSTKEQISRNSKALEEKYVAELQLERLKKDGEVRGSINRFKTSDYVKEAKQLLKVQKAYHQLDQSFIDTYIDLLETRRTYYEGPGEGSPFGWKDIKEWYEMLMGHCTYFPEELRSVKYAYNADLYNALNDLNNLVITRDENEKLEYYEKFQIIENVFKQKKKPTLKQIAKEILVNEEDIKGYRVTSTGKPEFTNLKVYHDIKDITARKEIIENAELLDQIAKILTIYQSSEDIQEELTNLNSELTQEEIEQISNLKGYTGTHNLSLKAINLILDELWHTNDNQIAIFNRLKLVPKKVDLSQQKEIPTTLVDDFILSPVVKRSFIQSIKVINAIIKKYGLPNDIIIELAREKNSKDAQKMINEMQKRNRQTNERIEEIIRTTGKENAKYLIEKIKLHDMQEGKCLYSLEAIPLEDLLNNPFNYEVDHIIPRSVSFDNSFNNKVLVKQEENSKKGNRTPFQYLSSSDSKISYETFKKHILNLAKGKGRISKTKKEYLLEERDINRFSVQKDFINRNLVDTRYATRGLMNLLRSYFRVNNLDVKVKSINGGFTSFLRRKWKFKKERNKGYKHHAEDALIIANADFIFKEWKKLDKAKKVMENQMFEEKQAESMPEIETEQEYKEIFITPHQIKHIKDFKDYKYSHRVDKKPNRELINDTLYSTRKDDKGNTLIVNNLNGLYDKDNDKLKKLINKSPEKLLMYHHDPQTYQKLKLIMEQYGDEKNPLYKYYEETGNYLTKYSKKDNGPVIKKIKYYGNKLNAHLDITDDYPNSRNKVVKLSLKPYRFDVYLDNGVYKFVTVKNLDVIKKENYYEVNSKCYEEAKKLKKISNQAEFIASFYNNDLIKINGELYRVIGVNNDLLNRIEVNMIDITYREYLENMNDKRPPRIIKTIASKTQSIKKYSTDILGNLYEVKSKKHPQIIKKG

| Substance | inhibition of Cas9 cleavage activity in the quenched FRET fluorescence assay [1] [µM] | inhibition of Cas9 cleavage activity in the quenched FRET fluorescence assay [2] [µM] |
| --- | --- | --- |
| AcrIIA4 anti-CRISPR protein | > 10 | < 0.03 |
| AcrIIC1 anti-CRISPR protein | > 10 | > 10 |
